Columns and labels:
RPS4-HF (Arabidopsis) = RPS4-HF (Arabidopsis) (UniProt Q9XGM3); experiment: co-IP
YFP-RPS4 (Arabidopsis) = YFP-RPS4 (Arabidopsis) (UniProt Q9XGM3); experiment: co-IP

Substance	stoichiometry N (RPS4-HF (Arabidopsis))	stoichiometry N (YFP-RPS4 (Arabidopsis))
RRS1-R-GFP (receptor)	1	
RRS1-R-HF (receptor)		1
